From patent publication US20260174875A1 (Novo Nordisk A/S, priority 2023, published 2026)
Square brackets hold non-standard residues; d marks the D form. Chem. 28 = not defined here; Aib = CC(C)(N)C(=O)O

T1: human amylin-3(a) receptor (human, UniProt P30988 25-474; O60896 24-148)
T1 sequence (looked up) 1: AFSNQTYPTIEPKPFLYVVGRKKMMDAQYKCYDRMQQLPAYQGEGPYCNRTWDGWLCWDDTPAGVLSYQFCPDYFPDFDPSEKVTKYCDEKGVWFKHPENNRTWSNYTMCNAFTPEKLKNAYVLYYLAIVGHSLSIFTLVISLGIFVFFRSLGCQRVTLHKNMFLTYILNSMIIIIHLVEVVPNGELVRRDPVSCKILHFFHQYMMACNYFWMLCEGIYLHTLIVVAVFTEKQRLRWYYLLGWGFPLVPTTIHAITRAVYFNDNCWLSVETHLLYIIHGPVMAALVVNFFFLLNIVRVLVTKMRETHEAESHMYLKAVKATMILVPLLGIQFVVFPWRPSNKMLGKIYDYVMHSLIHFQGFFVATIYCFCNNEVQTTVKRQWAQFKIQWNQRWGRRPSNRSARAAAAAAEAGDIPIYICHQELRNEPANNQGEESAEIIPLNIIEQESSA
T1 sequence (looked up) 2: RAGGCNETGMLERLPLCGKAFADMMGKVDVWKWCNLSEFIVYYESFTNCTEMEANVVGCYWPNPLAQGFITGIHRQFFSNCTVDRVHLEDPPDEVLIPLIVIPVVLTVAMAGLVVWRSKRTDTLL

T2: human GIP receptor (human, UniProt P48546 22-466)
T2 sequence (looked up): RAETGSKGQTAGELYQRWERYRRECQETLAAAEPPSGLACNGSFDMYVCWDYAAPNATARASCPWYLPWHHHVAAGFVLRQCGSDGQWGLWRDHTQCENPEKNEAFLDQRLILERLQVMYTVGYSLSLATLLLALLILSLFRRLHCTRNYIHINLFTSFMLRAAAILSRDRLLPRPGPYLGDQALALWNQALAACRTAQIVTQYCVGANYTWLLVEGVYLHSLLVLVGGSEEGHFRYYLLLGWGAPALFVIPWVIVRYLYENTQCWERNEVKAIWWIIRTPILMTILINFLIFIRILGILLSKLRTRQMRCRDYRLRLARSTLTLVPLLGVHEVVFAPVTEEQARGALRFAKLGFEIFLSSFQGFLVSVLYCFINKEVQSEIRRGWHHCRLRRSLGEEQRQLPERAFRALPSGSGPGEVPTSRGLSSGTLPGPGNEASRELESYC

B1: Compound 37 (peptide)
peptide: H[Aib]HGTFTSDYSILLEEQAAREFIEWLLAGGPSK(Chem. 28)GAPPPSGGGEASHLSTAQTARLSAELHRLADLPRTETGSGSP-NH2
modifications: reading uncertain
B2: Compound 48 (peptide)
peptide: Y[Aib]EGTFTSDYSILLEEQAAREFIEWLLAGGPSSGALAQTLAQTLASHLSTAQTQRLSAELHK(Chem. 28)LATLPRTETGSGSP-NH2
modifications: reading uncertain
B3: Compound 55 (peptide)
peptide: Y[Aib]EGTFTSDYSILLEEQAAREFIEWLLAGGPSSGAGQAPGQAPGASHLSTAQTQRLSAK(Chem. 28)LHRLATLPRTETGSGSP-NH2
modifications: reading uncertain
B4: Compound 52 (peptide)
peptide: Y[Aib]EGTFTSDYSILLEEQAAREFIEWLLAGGPSSGAGQAPGQAPGASHLSTAQTQRLSAELHK(Chem. 28)LATLPRTETGSGSP-NH2
modifications: reading uncertain
B5: Compound 49 (peptide)
peptide: Y[Aib]EGTFTSDYSILLEEQAAREFIEWLLAGGPSSGAPPPSGGGEASHLSTAQTQRLSAELHK(Chem. 28)LATLPRTETGSGSP-NH2
modifications: reading uncertain
B6: Compound 50 (peptide)
peptide: Y[Aib]EGTFTSDYSILLEEQAAREFIEWLLAGGPSSGEASHLSTAQTQRLSAELHK(Chem. 28)LATLPRTETGSGSP-NH2
modifications: reading uncertain
B7: Compound 53 (peptide)
peptide: Y[Aib]EGTFTSDYSILLEEQAAREFIEWLLAGGPSSGAGQAPGQAPGASHLSTAALGRLSAELHK(Chem. 28)LATLPRTETGSGSP-NH2
modifications: reading uncertain
B8: Compound 38 (peptide)
peptide: Y[Aib]EGTFTSDYSILLEEQAAREFIEWLLAGGPSK(Chem. 28)GGQAPGQAPGEASHLSTAQTQRLSAELHELATLPRTETGSGSP-NH2
modifications: reading uncertain
B9: Compound 43 (peptide)
peptide: H[Aib]HGTFTSDYSILLEEQAAREFIEWLLAGGPSK(Chem. 28)GEASQLSTAALGRLSAELHRLADLPRTETGSGSP-NH2
modifications: reading uncertain
B10: Compound 39 (peptide)
peptide: Y[Aib]EGTFTSDYSILLEEQAAREFIEWLLAGGPSK(Chem. 28)GGQEPGQEPGEASHLSTAQTQRLSAELHELATLPRTETGSGSP-NH2
modifications: reading uncertain
B11: Compound 45 (peptide)
peptide: H[Aib]HGTFTSDYSILLEEQAAREFIEWLLAGGPSK(Chem. 28)GALAQTLGTNEASHLSTAQTQRLSAELHELATLPRTETGSGSP-NH2
modifications: reading uncertain
B12: Compound 51 (peptide)
peptide: H[Aib]HGTFTSDYSILLEEQAAREFIEWLLAGGPSSGALAQTLAQTLASHLSTAQTQRLSAELHK(Chem. 28)LATLPRTETGSGSP-NH2
modifications: reading uncertain
B13: Compound 47 (peptide)
peptide: H[Aib]HGTFTSDYSILLEEQAAREFIEWLLAGGPSK(Chem. 28)GAGQAPGQAPGASHLSTAQTQRLSAELHELATLPRTETGSGSP-NH2
modifications: reading uncertain

What was measured:
Assay in all cases: cell-based or functional assay
[1] = molecular target: T1, human amylin-3(a) receptor
human GIP receptor [2] = molecular target: T2, human GIP receptor
human GLP-1 receptor [3] = molecular target: T3, human GLP-1 receptor (human, UniProt P43220 24-463)
[4] = molecular target: T1, human amylin-3(a) receptor; remark: listed apart in the source
human GIP receptor [5] = molecular target: T2, human GIP receptor; remark: listed apart in the source
human GLP-1 receptor [6] = molecular target: T3, human GLP-1 receptor; remark: listed apart in the source

Row | Binder | hAMYR3 Potency, 1% HSA, EC50 [pM] [1] | hGIPR Potency, 1% HSA, EC50 [pM] (human GIP receptor [2]) | hGLP-1R Potency, 1% HSA, EC50 [pM] (human GLP-1 receptor [3]) | hAMYR3 Potency, no HSA, EC50 [pM] [4] | hGIPR Potency, no HSA, EC50 [pM] (human GIP receptor [5]) | hGLP-1R Potency, no HSA, EC50 [pM] (human GLP-1 receptor [6])
1 | B1 | 75.7 pM | 133 pM | 188 pM | 2.98 pM | 2.34 pM | 3.94 pM
2 | B2 | 78.5 pM | 54 pM | 105 pM | 3.2 pM | 7.02 pM | 64.8 pM
3 | B3 | 34 pM | 10.3 pM | 45.3 pM | 2.22 pM | 3 pM | 23 pM
4 | B4 | 119 pM | 6.79 pM | 26.9 pM | 2.85 pM | 1.83 pM | 11 pM
5 | B5 | 106 pM | 16.7 pM | 110 pM | 1.85 pM | 4.36 pM | 33.3 pM
6 | B6 | 185 pM | 15.1 pM | 66.3 pM | 3.2 pM | 2.36 pM | 16.2 pM
7 | B7 | 75.9 pM | 14.6 pM | 79.2 pM | 3.22 pM | 3.25 pM | 23.3 pM
8 | B8 | 172 pM | 336 pM | 2350 pM | 3.63 pM | 1.37 pM | 12 pM
9 | B9 | 56.5 pM | 186 pM | 41.5 pM | 3.13 pM | 4.38 pM | 4.31 pM
10 | B10 | 140 pM | 352 pM | 1930 pM | 5.75 pM | 1.62 pM | 23.7 pM
11 | B11 | 62.4 pM | 132 pM | 112 pM | 4.69 pM | 2.63 pM | 4.78 pM
12 | B12 | 57.1 pM | 61.9 pM | 32.2 pM | 6.19 pM | 8.37 pM | 7.68 pM
13 | B13 | 55.8 pM | 162 pM | 67.5 pM | 2.57 pM | 2.02 pM | 3.15 pM
